{"source": "patent US7387779B2", "about": "“Anti-angiogenic proteins and fragments and methods of use thereof” (Beth Israel Deaconess Medical Center, priority 1998, dated 2008)", "molecules": {"B1": {"name": "Tumstatin: NC1 domain of the α3 chain of type IV collagen, residues 1-244 (SEQ ID NO:10) (protein, listed as Homo sapiens)", "chain": "GLKGKRGDSGSPATWTTRGFVFTRHSQTTAIPSCPEGTVPLYSGFSFLFVQGNQRAHGQDLGTLGSCLQRFTTMPFLFCNVNDVCNFASRNDYSYWLSTPALMPMNMAPITGRALEPYISRCTVCEGPAIAIAVHSQTTDIPPCPHGWISLWKGFSFIMFTSAGSEGTGQALASPGSCLEEFRASPFLECHGRGTCNYYSNSYSFWLASLNPERMFRKPIPSTVKAGELEKIISRCQVCMKKRH"}, "B2": {"name": "Tumstatin-44-131: residues 44 to 131 of full-length Tumstatin (SEQ ID NO:33) (protein)", "chain": "FSFLFVQGNQRAHGQDLGTLGSCLQRFTTMPFLFCNVNDVCNFASRNDYSYWLSTPALMPMNMAPITGRALEPYISRCTVCEGPAIAI", "modifications": "Tumstatin-45-132 (amino acids 45-132 of SEQ ID NO10)"}, "B3": {"name": "Canstatin: NC1 domain of the α2 chain of Type IV collagen (SEQ ID NO:6) (protein, listed as Homo sapiens)", "chain": "VSIGYLLVKHSQTDQEPMCPVGMNKLWSGYSLLYFEGQEKAHNQDLGLAGSCLARFSTMPFLYCNPGDVCYYASRNDKSYWLSTTAPLPMMPVAEDEIKPYISRCSVCEAPAIAIAVHSQDVSIPHCPAGWRSLWIGYSFLMHTAAGDEGGGQSLVSPGSCLEDFRATPFIECNGGRGTCHYYANKYSFWLTTIPEQSFQGSPSADTLKAGLIRTHISRCQVCMKNL"}}, "key": {"Caspase-3 in C-PAE cells": {"test_system": "Caspase-3 in C-PAE cells", "experiment": "Caspase-3 assay", "assay_type": "cell-based, bovine", "conditions": "20 μg/ml Tumstatin; TNF-α positive control"}, "HUVEC cells": {"test_system": "HUVEC cells", "experiment": "Cell surface labeling with biotinylated Tumstatin-44-131", "assay_type": "binding, human", "conditions": "streptavidin-FITC", "method": "Recombinant E. Coli-expressed Tumstatin-44-131 was biotinylated using Sulfo-NHS-LC-Biotin (Pierce Chem. Co). Tumstatin-44-131, in a buffer containing 10% DMSO and 5% D-mannitol, was incubated with 12 M excess of Sulfo-NHS-LC-Biotin overnight at 4° C. The biotinylated Tumstatin-44-131 precipitated out of solution during this incubation. The precipitate was washed twice with distilled water, resuspended in DMSO, and then mixed 1:1 with distilled water to obtain a final concentration of approximately 4 mg/ml. The biotinylated Tumstatin-44-131 was stored at 4° C.\nFor cell surface labeling, subconfluent HUVEC cells were removed from the flask using EDTA with light trypsinization, and then washed twice with DMEM containing 2% BSA. Cells were then resuspended in DMEM/BSA and incubated for 1 hour at 4° C. with either biotin-labeled Tumstatin-44-131 or the product of a mock biotin reaction run without Tumstatin-44-131. Cells were then washed twice with DMEM/BSA and then incubated with streptavidin-FITC (“Neutravidin-FITC”, Pierce Chem. Co) for thirty minutes at 4° C. Samples were then viewed on a Nikon Eclipse E600 fluorescent microscope and analyzed by flow cytometry."}, "HEK 293 cells": {"test_system": "HEK 293 cells", "experiment": "Annexin V-FITC apoptosis assay", "assay_type": "cell-based, human", "conditions": "15 μg/ml", "method": "(§1) Annexin V-FITC Labeling. In order to establish apoptosis as the potential mode of action for Canstatin, Annexin V-FITC was used to label externalized phosphatidylserine (PS), to assess apoptotic cells. 0.5×10^6 C-PAE cells, PC-3, 786-O and HEK 293 cells were added to each well of a 6 well tissue culture plate in 10% FBS supplemented DMEM (BioWhittaker, Walkersville, Md., USA) overnight. The next day, fresh medium was added to all wells together with 40 ng/ml TNF-α (positive control) or 15 μg/ml Canstatin. Control cells received an equal volume of PBS. After 24 hours of treatment, medium containing detached cells was collected and attached cells were trypsinized and combined with detached cells and centrifuged at 3,000×g. Cells were then washed and phosphatidyl-serine externalization (an early apoptotic indicator) was measured by labeling with FITC-labeled annexin V (Clontech, Palo Alto, Calif., USA) according to the manufacturer's instructions. Annexin V-FITC-labeled cells were counted using a FAC Star Plus flow cytometer (Becton-Dickenson, Waltham, Mass., USA). For each treatment 15,000 cells were counted and stored in listmode."}, "786-O cells": {"test_system": "786-O cells", "experiment": "Annexin V-FITC apoptosis assay", "assay_type": "cell-based, human", "conditions": "15 μg/ml", "method": "as §1"}, "PC-3 tumors": {"test_system": "PC-3 tumors", "experiment": "PC-3 prostate tumor xenograft in SCID mice", "assay_type": "in vivo", "conditions": "10 mg/kg", "method": "Human prostate adenocarcinoma cells (PC-3 cells) were harvested from culture and 2 million cells in sterile PBS were injected subcutaneously into 7- to 9-week-old male SCID mice. The tumors grew for approximately 4 weeks after which animals were divided into groups of 4 mice. […] The control group received equal volumes of PBS each day. At the start of treatment (day 0), the tumors ranged in volume from 88 mm^3 to 135 mm^3 for the control mice, and 108 mm^3 to 149 mm^3 for the Canstatin-treated mice. Each group contained five mice. […] Canstatin-treated (▪) tumors increased only marginally in size relative to controls (□)."}, "HUVECs": {"test_system": "HUVECs", "experiment": "Endothelial cell migration, Boyden chamber", "assay_type": "cell-based, human", "method": "In the process of angiogenesis, endothelial cells not only proliferate but also migrate. Therefore, the effect of Canstatin on endothelial cell migration was assessed. The inhibitory effect of Canstatin and endostatin on FBS-induced chemotaxis was tested on human umbilical endothelial cells (HUVECs) using the Boyden chamber assay (Neuro-Probe, Inc., Cabin John, Md., USA). HUVECs cells were grown in M199 (Life Technologies/Gibco BRL, Gaithersburg, Md., USA) containing 10% FBS and 5 ng/ml DiC 18(3) living fluorescent stain (Molecular Probes, Inc., Eugene, Oreg., USA) overnight. After trypsinizing, washing and diluting cells in M199 containing 0.5% FBS, 60,000 cells were seeded in the upper chamber wells, together with or without Canstatin ([…]). M199 medium containing 2% FBS was placed in the lower chamber as a chemotactant. The cell-containing compartments were separated from the chemotactant with polycarbonate filters (Poretics Corp., Livermore, Calif., USA) of 8 μm pore size. […] Using a fluorescent high power field, several independent homogenous images were recorded by a digital SenSys™ camera operated with Image Processing Software PMIS (Roper Scientific/Photometrics, Tucson, Ariz., USA). Cells were counted by employing the OPTIMIZE 6.0 software-program (Media Cybernetics, Rochester, N.Y.) (Klemke, R. L. et al., 1994, J. Cell. Biol. 127:859-66)."}}, "data": [{"molecule": "B1", "values": [{"measurement": "fold increase in Caspase-3 activity", "setting": "Caspase-3 in C-PAE cells", "result": 1.6, "unit": "fold"}]}, {"molecule": "B2", "values": [{"measurement": "binding to the endothelial cell surface", "setting": "HUVEC cells", "result": "binds the surface of endothelial cells"}]}, {"molecule": "B3", "values": [{"measurement": "apoptosis of HEK 293 cells", "setting": "HEK 293 cells", "result": "no significant effect"}, {"measurement": "apoptosis of 786-O cells", "setting": "786-O cells", "result": "no significant effect"}, {"measurement": "fractional tumor volume as % of vehicle only-injected mice", "setting": "PC-3 tumors", "result": 55, "unit": "%"}, {"measurement": "fractional tumor volume, fold less than vehicle", "setting": "PC-3 tumors", "result": 1.8, "unit": "fold"}, {"measurement": "concentration with significant effect on migration", "setting": "HUVECs", "result": 10, "unit": "ng/mL"}]}]}
